Assay results published in paper PMC4309443.

What was measured:
[1] = molecular target: truncated Importin α1 (residues 71–497) (UniProt P52292); assay: ITC; MicroCal iTC200, 25 °C; 1.5 mM TAF8 peptide injected into 39 μM Importin α1; 25 mM Tris-HCl pH 8.0, 150 mM NaCl, 1 mM β-mercaptoethanol; one-site model; duplicates
[2] = molecular target: recombinant human TAF8, full length (human) (UniProt Q7Z7C8); assay: AUC; sedimentation velocity, absorbance at 280 nm, 42,000 r.p.m., 10 °C; c(s) analysis with Sedfit
[3] = molecular target: recombinant human TAF2, full length (human); assay: native MS; TAF2–8–10 in 500 mM ammonium acetate pH 7.5, Q-ToF II, collision-induced dissociation
[4] = molecular target: recombinant human TAF2, full length (human); assay: AUC; sedimentation velocity, absorbance at 280 nm, 42,000 r.p.m., 10 °C; c(s) analysis with Sedfit
[5] = molecular target: recombinant human TAF2, full length (human); assay: SPR; BIACORE 3000, 25 °C; TAF2 amine-coupled to CM5 (2,500 RU); MBP–TAF8 analytes at 500 nM; 25 mM HEPES-NaOH pH 7.0, 300 mM NaCl, 0.01% NP-40

Work on “TAF8 NLS peptide used for ITC (printed as residues 288–310)” yielded a Kd [1] of 10.4 µM, a dH [1] of -18.5 kcal/mol and a stoichiometry N [1] of 1.

Work on “recombinant human TAF10, full length (natural protein)” yielded a stoichiometry N [2] of 1.

For “TAF8–10 complex (full-length TAF8 and TAF10) (from UniProt Q7Z7C8-1 1-310)”, the stoichiometry N [3] was 1 and the stoichiometry N [4] was 1.

B1: MBP–TAF8 (residues 141–310) (domain or fragment)
chain: PHPPHIPSHFPEFPDPHTYIKTPTYREPVSDYQVLREKAASQRRDVERALTRFMAKTGETQSLFKDDVSTFPLIAARPFTIPYLTALLPSELEMQQMEETDSSEQDEQTDTENLALHISMEDSGAEKENTSVLQQNPSLSGSRNGEENIIDNPYLRPVKKPKIRRKKSLS
For B1, the maximal association level [5] was 40 RU.

B2: MBP–TAF8 (residues 105–260) (domain or fragment)
chain: DTLPAYAKRSQRMVITAPPVTNQPVTPKALTAGQNRPHPPHIPSHFPEFPDPHTYIKTPTYREPVSDYQVLREKAASQRRDVERALTRFMAKTGETQSLFKDDVSTFPLIAARPFTIPYLTALLPSELEMQQMEETDSSEQDEQTDTENLALHISM
Molecule B2 has a maximal association level [5] of less than 10 RU.

B3: MBP–TAF8 (residues 105–310) (domain or fragment)
chain: DTLPAYAKRSQRMVITAPPVTNQPVTPKALTAGQNRPHPPHIPSHFPEFPDPHTYIKTPTYREPVSDYQVLREKAASQRRDVERALTRFMAKTGETQSLFKDDVSTFPLIAARPFTIPYLTALLPSELEMQQMEETDSSEQDEQTDTENLALHISMEDSGAEKENTSVLQQNPSLSGSRNGEENIIDNPYLRPVKKPKIRRKKSLS
In the case of B3, the maximal association level [5] is reported as 85 RU.

B4: MBP–TAF8 (residues 200–310) (domain or fragment)
chain: TQSLFKDDVSTFPLIAARPFTIPYLTALLPSELEMQQMEETDSSEQDEQTDTENLALHISMEDSGAEKENTSVLQQNPSLSGSRNGEENIIDNPYLRPVKKPKIRRKKSLS
B4 showed a maximal association level [5] of less than 10 RU.
